Data published in paper PMC3069021 (Molecular Biology of the Cell, 2011).

Molecular target: Y925F-FAK (nonphosphorylatable mutant of FAK/YCam) (human, UniProt Q05397 1-1052, Y925F)
Assay: co-IP

Y925F-FAK (nonphosphorylatable mutant of FAK/YCam), sequence (Q05397 whole entry Y925F): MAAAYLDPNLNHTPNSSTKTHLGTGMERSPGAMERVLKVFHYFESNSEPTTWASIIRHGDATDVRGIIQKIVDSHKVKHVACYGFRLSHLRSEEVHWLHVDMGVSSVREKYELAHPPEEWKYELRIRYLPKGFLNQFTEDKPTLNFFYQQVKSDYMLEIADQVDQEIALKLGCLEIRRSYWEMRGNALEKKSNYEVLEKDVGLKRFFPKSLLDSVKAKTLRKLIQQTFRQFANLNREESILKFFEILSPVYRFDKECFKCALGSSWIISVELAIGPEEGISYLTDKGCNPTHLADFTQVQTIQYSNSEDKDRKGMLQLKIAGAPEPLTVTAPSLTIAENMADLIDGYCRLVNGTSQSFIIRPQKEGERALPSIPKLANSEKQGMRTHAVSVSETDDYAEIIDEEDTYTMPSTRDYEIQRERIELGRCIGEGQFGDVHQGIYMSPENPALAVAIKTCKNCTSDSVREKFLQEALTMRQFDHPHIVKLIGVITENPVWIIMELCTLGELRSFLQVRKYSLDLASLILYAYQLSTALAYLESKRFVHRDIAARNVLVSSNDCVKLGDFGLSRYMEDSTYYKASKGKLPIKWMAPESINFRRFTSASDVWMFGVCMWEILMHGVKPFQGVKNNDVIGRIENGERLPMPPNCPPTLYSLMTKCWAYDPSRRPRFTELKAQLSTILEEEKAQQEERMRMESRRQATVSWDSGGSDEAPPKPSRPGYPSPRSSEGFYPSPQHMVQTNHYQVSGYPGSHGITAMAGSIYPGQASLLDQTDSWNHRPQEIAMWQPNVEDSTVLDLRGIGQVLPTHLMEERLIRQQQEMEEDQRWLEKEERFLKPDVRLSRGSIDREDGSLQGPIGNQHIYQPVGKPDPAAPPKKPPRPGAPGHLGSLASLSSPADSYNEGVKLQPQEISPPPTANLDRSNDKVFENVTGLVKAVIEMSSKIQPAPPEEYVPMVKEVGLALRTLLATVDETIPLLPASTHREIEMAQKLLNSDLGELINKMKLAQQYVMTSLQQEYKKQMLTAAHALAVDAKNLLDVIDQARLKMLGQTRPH

B1: paxillin (natural protein)
chain: not shown
  fold change of co-precipitated paxillin against wild-type FAK or Y925E-FAK: 3 fold
